Data as given in patent US20140087995A1 (published 2014).
Where two headings read alike, the source gives them in different places. Numbered stars: 1 amine (or outer) side, 2 acyl side, 3 side chain; on linkers, the order of the positions; unused ones are H or OH. Bridge positions count the residues as written; N and C are the ends. Side chains are listed from the residue outwards. Ends that are not written are not given here. * marks the point of attachment. C20 diacid = O=C(O)CCCCCCCCCCCCCCCCCCC(=O)*; γGlu = O=C(O)[C@H](CCC(=O)[*:2])N[*:1]

T1: human amylin receptor (amylin 3(a) receptor: human calcitonin receptor coexpressed with RAMP-3) (human, UniProt P30988 25-474; O60896 24-148)
T1 sequence (looked up) 1: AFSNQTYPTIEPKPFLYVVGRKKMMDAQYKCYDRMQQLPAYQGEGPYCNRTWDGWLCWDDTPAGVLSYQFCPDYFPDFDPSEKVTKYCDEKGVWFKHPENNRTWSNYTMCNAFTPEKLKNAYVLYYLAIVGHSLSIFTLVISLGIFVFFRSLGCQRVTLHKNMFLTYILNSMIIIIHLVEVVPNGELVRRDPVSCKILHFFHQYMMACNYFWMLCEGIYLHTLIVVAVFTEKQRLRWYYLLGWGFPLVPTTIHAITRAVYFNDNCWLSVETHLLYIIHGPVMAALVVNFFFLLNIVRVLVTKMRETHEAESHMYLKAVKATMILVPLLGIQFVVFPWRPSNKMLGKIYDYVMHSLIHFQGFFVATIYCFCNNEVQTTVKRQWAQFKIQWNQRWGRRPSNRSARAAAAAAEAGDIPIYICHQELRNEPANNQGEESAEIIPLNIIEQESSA
T1 sequence (looked up) 2: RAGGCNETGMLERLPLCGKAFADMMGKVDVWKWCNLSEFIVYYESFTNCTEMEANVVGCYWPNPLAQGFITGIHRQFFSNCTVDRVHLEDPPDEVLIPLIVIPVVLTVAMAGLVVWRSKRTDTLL

T2: human calcitonin receptor (human, UniProt P30988 25-474)
T2 sequence (looked up): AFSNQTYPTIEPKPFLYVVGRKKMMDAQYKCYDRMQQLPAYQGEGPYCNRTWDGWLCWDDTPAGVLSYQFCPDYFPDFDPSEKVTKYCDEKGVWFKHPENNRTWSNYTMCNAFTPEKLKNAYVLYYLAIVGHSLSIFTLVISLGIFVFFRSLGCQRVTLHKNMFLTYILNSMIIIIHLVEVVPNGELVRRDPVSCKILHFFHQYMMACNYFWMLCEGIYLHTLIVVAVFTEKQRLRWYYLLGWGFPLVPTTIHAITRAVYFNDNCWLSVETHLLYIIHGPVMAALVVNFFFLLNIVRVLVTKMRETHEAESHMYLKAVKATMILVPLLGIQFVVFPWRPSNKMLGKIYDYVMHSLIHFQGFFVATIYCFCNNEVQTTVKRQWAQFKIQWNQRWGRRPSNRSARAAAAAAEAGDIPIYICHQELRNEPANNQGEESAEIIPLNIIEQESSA

T3: human calcitonin receptor (human, UniProt P30988 25-474)
T3 sequence (looked up): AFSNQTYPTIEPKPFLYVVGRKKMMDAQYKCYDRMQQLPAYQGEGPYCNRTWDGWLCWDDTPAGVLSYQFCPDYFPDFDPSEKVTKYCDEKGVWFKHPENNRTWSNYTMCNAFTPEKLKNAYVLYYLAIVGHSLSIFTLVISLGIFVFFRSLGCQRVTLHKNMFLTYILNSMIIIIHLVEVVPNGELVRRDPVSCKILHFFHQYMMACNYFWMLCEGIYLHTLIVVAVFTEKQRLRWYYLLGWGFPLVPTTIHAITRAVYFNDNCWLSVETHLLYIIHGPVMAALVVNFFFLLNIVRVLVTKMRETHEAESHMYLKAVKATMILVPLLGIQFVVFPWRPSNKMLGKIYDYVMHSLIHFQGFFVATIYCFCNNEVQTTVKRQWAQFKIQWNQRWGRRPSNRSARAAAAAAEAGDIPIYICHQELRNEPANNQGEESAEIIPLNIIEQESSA

T4: human amylin receptor (amylin 3(a) receptor: human calcitonin receptor with RAMP-3) (human, UniProt P30988 25-474; O60896 24-148, limits assumed)
T4 sequence (looked up) 1: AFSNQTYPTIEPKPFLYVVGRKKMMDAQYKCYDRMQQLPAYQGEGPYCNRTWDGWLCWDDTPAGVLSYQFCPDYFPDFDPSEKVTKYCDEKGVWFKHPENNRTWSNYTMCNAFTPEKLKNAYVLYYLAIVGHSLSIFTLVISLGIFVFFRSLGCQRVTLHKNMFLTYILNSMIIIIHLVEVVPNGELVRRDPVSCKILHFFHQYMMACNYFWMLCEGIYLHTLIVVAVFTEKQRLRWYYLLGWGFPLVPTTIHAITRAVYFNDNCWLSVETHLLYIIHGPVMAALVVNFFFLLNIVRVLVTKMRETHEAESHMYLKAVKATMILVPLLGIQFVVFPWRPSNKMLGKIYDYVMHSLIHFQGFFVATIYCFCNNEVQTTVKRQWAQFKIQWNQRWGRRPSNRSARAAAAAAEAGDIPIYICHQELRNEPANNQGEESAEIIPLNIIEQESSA
T4 sequence (looked up) 2: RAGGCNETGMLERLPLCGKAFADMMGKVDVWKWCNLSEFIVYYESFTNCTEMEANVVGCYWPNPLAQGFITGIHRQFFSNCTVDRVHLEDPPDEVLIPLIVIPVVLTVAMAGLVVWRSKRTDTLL


Key:
[1] = target: T1, human amylin receptor (amylin 3(a) …); test: cell-based or functional assay
[2] = target: T2, human calcitonin receptor; test: cell-based or functional assay
[3] = target: T1, human amylin receptor (amylin 3(a) …); test: SPA competition against 125I-rat amylin, membranes of BHK amylin 3(a)/CRE-luc cells (Assay V)
Procedure: The binding assay was performed using scintillation proximity assay (SPA) beads (RPNQ0001) from PerkinElmer and cell membranes from the Amylin 3(a)/CRE-luc cells (as described in Assay (II)) were used. Membranes were prepared in the following way; the cells were rinsed with PBS and incubated with Versene for approximately 5 min before harvesting. The cells were flushed with PBS and the cell-suspension was centrifuged for 5 min at 1000 rpm. Cells were homogenized (ultrathurrax) in a buffer containing 20 mM Na-HEPES and 10 mM EDTA (pH 7.4) and centrifuged at 20.000 rpm for 15 min. The resulting pellet was resuspended, homogenized and centrifuged (20.000 rpm, 15 min) in a buffer containing 20 mM Na-HEPES and 0.1 mM EDTA (pH 7.4, buffer 2). The resulting pellet was resuspended in buffer 2 and protein concentration was measured (BCA protein Assay, Pierce). The homogenate was kept cold during the whole procedure. The membranes were kept at −80° C. until use. The assay was performed in a 384 well Optiplate (PerkinElmer) in a total volume of 40 ul. Membranes were mixed with SPA beads. Final concentration of membranes 35 ng/μL final and SPA beads was 0.05 mg/well. Test-compounds were dissolved in DMSO and further diluted in assay buffer (50 mM Hepes, pH 7.4, 1 mM CaCl2, 5 mM MgCl₂, 0.1% OA and 0.02% Tween20). […] The final mixture was incubated with shaking at 400 rpm for 120 min at 25° C. prior to centrifugation (1500 rpm, 10 min). Samples were analyzed on TopCounter™ (Packard). The IC₅₀ was calculated using (one site binding competition analysis) GraphPad Prism5 as a measure of receptor affinity.

[4] = target: T3, human calcitonin receptor; test: cell-based or functional assay; remark: listed apart in the source
[5] = target: T4, human amylin receptor (amylin 3(a) …); test: cell-based or functional assay

Row | Binder | hAmylin-R funct. EC50 (pM) [1] [pM] | Ratio hCT/hAmylin funct. [2] | hCTR funct. EC50 (pM) [2] [pM] | IC50 [3] [nM] | Ratio hCT/hAmylin funct. [4] [ratio] | hAmylin-R funct. EC50 (pM) [5] [pM] | hCTR funct. EC50 (pM) [4] [pM]
1 | K([γGlu-γGlu-C20 diacid])CNTATCATQRLAEFLRHSSNNPGAILSSTNVGPETY-NH2 (disulfide 2-7) | 5170 | 17.3 | 89600 | 1.19 | – | – | –
2 | K([γGlu-γGlu-C20 diacid])CNTATCATQRLAEFLRHSSPNFGAIPSSTNVGHNTY-NH2 (disulfide 2-7; N-terminus assumed; SMILES CC[C@H](C)[C@H](NC(=O)[C@H](C)NC(=O)CNC(=O)[C@H](Cc1ccccc1)NC(=O)[C@H](CC(N)=O)NC(=O)[C@@H]1CCCN1C(=O)[C@H](CO)NC(=O)[C@H](CO)NC(=O)[C@H](Cc1c[nH]cn1)NC(=O)[C@H](CCCNC(=N)N)NC(=O)[C@H](CC(C)C)NC(=O)[C@H](Cc1ccccc1)NC(=O)[C@H](CCC(=O)O)NC(=O)[C@H](C)NC(=O)[C@H](CC(C)C)NC(=O)[C@H](CCCNC(=N)N)NC(=O)[C@H](CCC(N)=O)NC(=O)[C@@H](NC(=O)[C@H](C)NC(=O)[C@@H]1CSSC[C@H](NC(=O)[C@@H](N)CCCCNC(=O)CC[C@H](NC(=O)CC[C@H](NC(=O)CCCCCCCCCCCCCCCCCCC(=O)O)C(=O)O)C(=O)O)C(=O)N[C@@H](CC(N)=O)C(=O)N[C@@H]([C@@H](C)O)C(=O)N[C@@H](C)C(=O)N[C@@H]([C@@H](C)O)C(=O)N1)[C@@H](C)O)C(=O)N1CCC[C@H]1C(=O)N[C@@H](CO)C(=O)N[C@@H](CO)C(=O)N[C@H](C(=O)N[C@@H](CC(N)=O)C(=O)N[C@H](C(=O)NCC(=O)N[C@@H](Cc1c[nH]cn1)C(=O)N[C@@H](CC(N)=O)C(=O)N[C@H](C(=O)N[C@@H](Cc1ccc(O)cc1)C(N)=O)[C@@H](C)O)C(C)C)[C@@H](C)O, also called compound 87) | – | – | – | – | 3.8 | 285 | –
3 | K([γGlu-γGlu-C20 diacid])CNTATCATQRLAEFLRHSSPNFGAIPSSTNVGPNTF-NH2 (disulfide 2-7; N-terminus assumed; SMILES CC[C@H](C)[C@H](NC(=O)[C@H](C)NC(=O)CNC(=O)[C@H](Cc1ccccc1)NC(=O)[C@H](CC(N)=O)NC(=O)[C@@H]1CCCN1C(=O)[C@H](CO)NC(=O)[C@H](CO)NC(=O)[C@H](Cc1c[nH]cn1)NC(=O)[C@H](CCCNC(=N)N)NC(=O)[C@H](CC(C)C)NC(=O)[C@H](Cc1ccccc1)NC(=O)[C@H](CCC(=O)O)NC(=O)[C@H](C)NC(=O)[C@H](CC(C)C)NC(=O)[C@H](CCCNC(=N)N)NC(=O)[C@H](CCC(N)=O)NC(=O)[C@@H](NC(=O)[C@H](C)NC(=O)[C@@H]1CSSC[C@H](NC(=O)[C@@H](N)CCCCNC(=O)CC[C@H](NC(=O)CC[C@H](NC(=O)CCCCCCCCCCCCCCCCCCC(=O)O)C(=O)O)C(=O)O)C(=O)N[C@@H](CC(N)=O)C(=O)N[C@@H]([C@@H](C)O)C(=O)N[C@@H](C)C(=O)N[C@@H]([C@@H](C)O)C(=O)N1)[C@@H](C)O)C(=O)N1CCC[C@H]1C(=O)N[C@@H](CO)C(=O)N[C@@H](CO)C(=O)N[C@H](C(=O)N[C@@H](CC(N)=O)C(=O)N[C@H](C(=O)NCC(=O)N1CCC[C@H]1C(=O)N[C@@H](CC(N)=O)C(=O)N[C@H](C(=O)N[C@@H](Cc1ccccc1)C(N)=O)[C@@H](C)O)C(C)C)[C@@H](C)O) | – | – | – | – | 9.9 | 216 | 2140
